Values of other authors as cited in publication PMC8069034.
pKd: −log10 of the molar value.

Biological target: IL13 (Homo sapiens) (UniProt P35225)
Assay: SPR

Sequence of IL13 (Homo sapiens) (P35225 25-146): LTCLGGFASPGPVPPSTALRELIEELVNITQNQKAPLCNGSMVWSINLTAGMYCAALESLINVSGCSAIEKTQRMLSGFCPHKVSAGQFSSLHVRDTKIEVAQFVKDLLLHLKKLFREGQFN

Substance: tralokinumab
- pKd: 10.24
